# Values quoted from earlier work as cited in publication PMC4786785.
# Biological target: Nterm1 (UniProt position 2, ----MPIAQIH)
# Details: not stated (wild-type enzyme, described in the context of the natural tautomerase mechanism)
substance,measurement,value
4-oxalocrotonate tautomerase (4-OT) (Pseudomonas putida mt-2),pKa,≈6.4
